In patent publication US20210069342A1 (LEGOCHEM BIOSCIENCES, published 2021):

B1: anti-ROR1 monoclonal phage antibody AB4 (soluble scFv) (scFv, V domains shown)
VH: EVQLLESGGGLVQPGGSLRLSCAASGFTFSSYDMSWVRQAPGKGLEWVSWISPDSGSIYYADSVKGRFTISRDNSKNTLYLQMNSLRAEDTAVYYCARPTGRFDYWGQGTLVTVSS
VL: QSVLTQPPSASGTPGQRVTISCSGSSSNIGNNNVNWYQQLPGTAPKLLIYYDNKRPSGVPDRFSGSKSGTSASLAISGLRSEDEADYYCGTWDASLSGYVFGGGTKLTVLG
notes: Tested as soluble scFv in culture supernatant, detected through an HA tag
B2: anti-ROR1 monoclonal phage antibody DG6 (soluble scFv) (scFv, V domains shown)
VH: EVQLLESGGGLVQPGGSLRLSCAASGFTFSDYDMSWVRQAPGKGLEWVSVISPDGGSIYYADSVKGRFTISRDNSKNTLYLQMNSLRAEDTAVYYCARDVVECNMNPCSYDNAMDVWGQGTLVTVSS
VL: QSVLTQPPSASGTPGQRVTISCSGSSSNIGSNYVSWYQQLPGTAPKLLIYDDSHRPSGVPDRFSGSKSGTSASLAISGLRSEDEADYYCGAWDDSLSGYVFGGGTKLTVLG
notes: as for B1
B3: anti-ROR1 monoclonal phage antibody D2B12 (soluble scFv) (scFv, V domains shown)
VH: EVQLLESGGGLVQPGGSLRLSCAASGFTFSNYDMSWVRQAPGKGLEWVSSISPSSGSSIYYADSVKGRFTISRDNSKNTLYLQMNSLRAEDTAVYYCAKAPGWCQAPSCYYDNAMDVWGQGTLVTVSS
VL: QSVLTQPPSASGTPGQRVTISCSGSSSNIGNNDVSWYQQLPGTAPKLLIYDDSQRPSGVPDRFSGSKSGTSASLAISGLRSEDEADYYCGAWDDSLSGYVFGGGTKLTVLG
notes: as for B1
B4: anti-ROR1 monoclonal phage antibody BA6 (soluble scFv) (scFv, V domains shown)
VH: EVQLLESGGGLVQPGGSLRLSCAASGFTFSNYDMSWVRQAPGKGLEWVSAIYHSGSSKYYADSVKGRFTISRDNSKNTLYLQMNSLRAEDTAVYYCARGGNGAWDTGFDYWGQGTLVTVSS
VL: QSVLTQPPSASGTPGQRVTISCSGSSSNIGSNDVSWYQQLPGTAPKLLIYYDNNRPSGVPDRFSGSKSGTSASLAISGLRSEDEADYYCGAWDDSLSGYVFGGGTKLTVLG
notes: as for B1
B5: anti-ROR1 monoclonal phage antibody A2F2 (soluble scFv) (scFv, V domains shown)
VH: EVQLLESGGGLVQPGGSLRLSCAASGFTFSDYYMSWVRQAPGKGLEWVSSISPDGSNTYYADSVKGRFTISRDNSKNTLYLQMNSLRAEDTAVYYCAKNLRAFDYWGQGTLVTVSS
VL: QSVLTQPPPASGTPGQRVTISCSGSSSNIGSNTVYWYQQLPGTAPKLLIYANSQRPSGVPDRFSGSKSGTSASLAISGLRSEDEADYYCGSWDYSLSGYVFGGGTKLTVLG
notes: as for B1
B6: anti-ROR1 monoclonal phage antibody CC9 (soluble scFv) (scFv, V domains shown)
VH: EVQLLESGGGLVQPGGSLRLSCAASGFTFSSYDMSWVRQAPGKGLEWVSGISHGSGNKYYADSVKGRFTISRDNSKNTLYLQMNSLRAEDTAVYYCAKRLSLRRRPSYYSDNAMDVWGQGTLVTVSS
VL: QSVLTQPPSASGTPGQRVTISCTGSSSNIGNNAVNWYQQLPGTAPKLLIYYDSNRPSGVPDRFSGSKSGTSASLAISGLRSEDEADYYCGAWDDSLSGYVFGGGTKLTVLG
notes: as for B1
B7: anti-ROR1 monoclonal phage antibody C2E3 (soluble scFv) (scFv, V domains shown)
VH: EVQLLESGGGLVQPGGSLRLSCAASGFTFSNYAMSWVRQAPGKGLEWVSSISHNSGSTYYADSVKGRFTISRDNSKNTLYLQMNSLRAEDTAVYYCAKFISARKSLGRSYSNGMDVWGQGTLVTVSS
VL: QSVLTQPPSASGTPGQRVTISCTGSSSNIGSNDVTWYQQLPGTAPKLLIYADSKRPSGVPDRFSGSKSGTSASLAISGLRSEDEADYYCGTWDYSLSGYVFGGGTKLTVLG
notes: as for B1
B8: anti-ROR1 monoclonal phage antibody A2F3 (soluble scFv) (scFv, V domains shown)
VH: EVQLLESGGGLVQPGGSLRLSCAASGFTFSSYDMSWVRQAPGKGLEWVSWISPGGGSKYYADSVKGRFTISRDNSKNTLYLQMNSLRAEDTAVYYCARVNGRFDYWGQGTLVTVSS
VL: QSVLTQPPSASGTPGQRVTISCSGSSSNIGNNNVSWYQQLPGTAPKLLIYADSHRPSGVPDRFSGSKSGTSASLAISGLRSEDEADYYCATWDYSLSGYVFGGGTKLTVLG
notes: as for B1

The binders below were run against T1, BCMA-Fc, a recombinant protein where the extracellular domain of human BCMA protein is linked to human Fc (human, UniProt Q02223 1-54) (assay: ELISA, wells coated with BCMA-Fc (negative control), monoclonal scFv supernatant, anti-HA HRP detection, OD (450-650nm)).
T1 construct: extracellular domain; Negative control in panning and ELISA; also called negative control-Fc
T1 sequence (looked up): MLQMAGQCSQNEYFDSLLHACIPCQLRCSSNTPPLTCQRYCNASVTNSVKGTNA
Experimental: Specifically, 100 ng per well of recombinant human ROR1-Fc prepared in Embodiment 1-1 or FBMA-Fc was placed in a 96-well microtiter plate (Nunc-Immuno Plate, NUNC, USA), which was coated overnight at 4° C. BCMA-Fc is the protein used as a negative control, a recombinant protein where the extracellular domain of human BCMA protein is linked to human Fc. 200 μL each of 3% BSA was placed in each well, and blocked for 2 hours at 37° C.
The monoclonal phage supernatant was prepared by mixing 1:1 with 3% BSA, and 100 μL each of this mixture was loaded into the wells and reacted for 2 hours at 37° C. After washing 5 times with 300 μL PBST, anti-HA HRP binding antibody was added, reacted for 1 hour at 37° C., then washed 5 times with PBST. 100 μL TMB (Tetramethylbenzidine, Sigma, T0440) was added for color development, and then 50 μL 1N H2SO₄ was added to stop the reaction. Absorbance was measured at 450 nm and 650 nm, and clones where the absorbance at 450 nm and 650 nm was […] when coated with 1 /mL ROR1 were screened (FIG. 1)

Binder | binding result
B1 | no binding
B2 | no binding
B3 | no binding
B4 | no binding
B5 | no binding
B6 | no binding
B7 | no binding
B8 | no binding
